Tests used:
[1] = biological target: Centruroides sculpturatus whole venom (toxic components CsEM1a and CsEd, ~10% of the venom); experiment: cell-based or functional assay
[2] = biological target: CsEM1a toxin from Centruroides sculpturatus venom (Centruroides sculpturatus); experiment: SPR (Biacore X), toxin on CM5 chip, scFv injected, 25 C, Langmuir 1:1
[3] = biological target: CsEd toxin from Centruroides sculpturatus venom (Centruroides sculpturatus); experiment: as above

Sequence of CsEM1a toxin from Centruroides sculpturatus venom (Centruroides sculpturatus) (P56646 whole entry): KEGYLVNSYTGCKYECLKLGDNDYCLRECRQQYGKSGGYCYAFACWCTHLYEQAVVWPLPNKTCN
Sequence of scFv 10FG2 (SEQ. ID. NO: 1) (scFv): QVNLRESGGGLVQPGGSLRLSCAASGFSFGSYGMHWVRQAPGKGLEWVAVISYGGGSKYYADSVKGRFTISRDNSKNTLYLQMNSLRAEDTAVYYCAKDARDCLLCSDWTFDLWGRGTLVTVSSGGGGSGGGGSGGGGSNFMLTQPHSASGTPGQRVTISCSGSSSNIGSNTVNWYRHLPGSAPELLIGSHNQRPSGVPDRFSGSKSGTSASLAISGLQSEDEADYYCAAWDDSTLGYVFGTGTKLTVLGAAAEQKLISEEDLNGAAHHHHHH

## scFv 10FG2 (SEQ. ID. NO: 1)
[1]
  Survivors/Total, mixing test, 2 LD50, molar ratio toxin:scFv 1:5 (survivors of 6 mice): 6
  Survivors/Total, mixing test, 3 LD50, molar ratio toxin:scFv 1:3.3 (survivors of 6 mice): 6
  Survivors/Total, mixing test, 4 LD50, molar ratio toxin:scFv 1:2.5 (survivors of 6 mice): 6
  Survivors/Total, mixing test, 5 LD50, molar ratio toxin:scFv 1:2 (survivors of 6 mice): 6
  Survivors/total, mice injected with venom premixed with scFv, 2 LD50, molar ratio toxin:scFv 1:10 (survivors of 6 mice): 6
[2]
  Kd: 1.1 nM
  TR (min), residence time: 63 min
  koff: 0.000261 s⁻¹
  kon: 237000 M⁻¹ s⁻¹
[3]
  Kd: 1.84 nM
  TR (min), residence time: 49 min
  koff: 0.00034 s⁻¹
  kon: 185000 M⁻¹ s⁻¹

From patent US20240092879A1
